According to patent publication US6127119, “Nucleic acid ligands of tissue target” (NeXstar Pharmaceuticals, Inc.):

Molecular target: Fibrinogen (Homo sapiens, UniProt P02671-2;P02675;P02679-2 P02671-2:20-644,P02675:31-491,P02679-2:27-437)
Assay: filter; low class; printed l mM, probably uM; clone printed FCNB
Conditions: chain copies: 2

Sequence of Fibrinogen (P02671 other isoform, or with tags, fused parts or gaps, chain 1 of 3): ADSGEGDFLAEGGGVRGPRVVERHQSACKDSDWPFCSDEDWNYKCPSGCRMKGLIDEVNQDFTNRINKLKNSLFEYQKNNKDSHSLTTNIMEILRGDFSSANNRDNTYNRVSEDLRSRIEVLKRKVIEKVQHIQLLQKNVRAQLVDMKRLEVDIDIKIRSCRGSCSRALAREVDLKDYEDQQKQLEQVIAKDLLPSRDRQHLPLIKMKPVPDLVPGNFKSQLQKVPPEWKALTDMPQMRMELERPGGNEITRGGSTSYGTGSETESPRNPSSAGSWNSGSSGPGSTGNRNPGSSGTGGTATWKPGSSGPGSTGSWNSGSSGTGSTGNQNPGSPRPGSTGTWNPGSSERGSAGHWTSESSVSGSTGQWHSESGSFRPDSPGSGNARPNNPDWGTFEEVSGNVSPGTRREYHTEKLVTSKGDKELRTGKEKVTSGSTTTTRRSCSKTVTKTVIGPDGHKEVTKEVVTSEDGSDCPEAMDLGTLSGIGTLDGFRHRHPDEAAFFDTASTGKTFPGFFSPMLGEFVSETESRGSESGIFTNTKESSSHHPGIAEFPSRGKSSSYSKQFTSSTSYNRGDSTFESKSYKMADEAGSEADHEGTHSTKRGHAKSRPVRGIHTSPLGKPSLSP
Sequence of Fibrinogen (P02675 31-491, chain 2 of 3): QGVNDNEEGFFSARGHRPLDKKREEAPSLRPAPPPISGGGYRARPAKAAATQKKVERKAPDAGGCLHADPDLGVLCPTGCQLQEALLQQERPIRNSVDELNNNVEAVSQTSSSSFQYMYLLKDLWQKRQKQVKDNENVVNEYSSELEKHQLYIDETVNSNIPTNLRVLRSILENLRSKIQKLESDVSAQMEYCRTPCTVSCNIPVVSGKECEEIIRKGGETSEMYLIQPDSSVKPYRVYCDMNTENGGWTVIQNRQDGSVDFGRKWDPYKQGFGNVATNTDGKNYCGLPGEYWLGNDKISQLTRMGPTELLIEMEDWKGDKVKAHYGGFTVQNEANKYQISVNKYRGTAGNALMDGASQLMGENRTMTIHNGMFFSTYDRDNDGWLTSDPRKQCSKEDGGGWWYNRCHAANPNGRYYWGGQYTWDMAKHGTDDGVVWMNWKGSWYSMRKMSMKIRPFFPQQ
Sequence of Fibrinogen (P02679 other isoform, or with tags, fused parts or gaps, chain 3 of 3): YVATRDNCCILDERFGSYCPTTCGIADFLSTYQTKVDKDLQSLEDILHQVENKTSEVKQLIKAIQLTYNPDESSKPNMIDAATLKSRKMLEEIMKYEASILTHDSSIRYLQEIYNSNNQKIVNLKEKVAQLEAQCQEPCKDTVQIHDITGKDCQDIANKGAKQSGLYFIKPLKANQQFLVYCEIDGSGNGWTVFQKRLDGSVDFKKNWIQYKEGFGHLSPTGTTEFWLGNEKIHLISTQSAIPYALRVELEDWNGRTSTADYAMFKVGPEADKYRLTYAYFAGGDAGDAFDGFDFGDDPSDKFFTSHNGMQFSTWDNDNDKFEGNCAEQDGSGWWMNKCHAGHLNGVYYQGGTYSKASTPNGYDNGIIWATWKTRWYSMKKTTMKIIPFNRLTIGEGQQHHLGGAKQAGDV

B1: FCN8 (ssRNA)
RNA: GGGAGAUAAGAAUAAACGCUCAAUAGCAAGUCCCACAUCCCAGACGGGCUAAAAAGAGGUGGAUUCGACAGGAGGCUCACAACAGGC
modifications: 2'-F pyrimidines
With B1 the Kd was greater than 1 µM.
